Data published in patent publication US20200017583A1 (Daiichi Sankyo, published 2020).
Each block holds one binder with its values, some of them ahead of it. Where no end group is shown, it is not given here. The star is where a group is joined. Biotin = O=C1N[C@H]2[C@H](CS[C@H]2CCCCC(=O)*)N1

Columns and labels:
[1] = molecular target: T1, human GPR20 protein (human, UniProt Q99678 1-358); assay: immunohistochemistry on paraffin-embedded GIST430 and GIST430/654 preparations, PC-3 as GPR20-negative control, DAB
T1 construct: membrane fraction on SDS-PAGE for the Western blot; The same entry is used for the endogenous GPR20 stained in GIST cell lines and clinical GIST tissue; also called hGPR20; G protein-coupled receptor 20
Procedure: Deparaffinization and antigen retrieval were carried out at 97° C. for 40 minutes with an antigen retrieval solution (Target Retrieval Solution High pH; manufactured by Dako/Agilent Technologies Inc.) using a pretreatment system for Autostainer Link (PT Link; manufactured by Dako/Agilent Technologies Inc.). Subsequent staining procedures were carried out at room temperature using an automatic staining apparatus (Dako Autostainer Link 48; manufactured by Dako/Agilent Technologies Inc.). After washing once with EnVision FLEX WASH BUFFER (manufactured by Dako/Agilent Technologies Inc.), Peroxidase Block 3% H2O2 (manufactured by Dako/Agilent Technologies Inc.) was added to the cells, which were then incubated for 5 minutes and washed once with EnVision FLEX WASH BUFFER. Protein Block serum free (manufactured by Dako/Agilent Technologies Inc.) was added to the cells, which were then incubated for 30 minutes. The solution was removed by air blow. A rat monoclonal anti-GPR20 antibody, a rabbit chimeric anti-GPR20 antibody or a rabbit type anti-GPR20 antibody was diluted into 1.0 μg/mL to 10 μg/mL with REAL Antibody Diluent (manufactured by Dako/Agilent Technologies Inc.) and reacted with the cells for 30 minutes.
DAKO Liquid DAB+Substrate Chromogen System was added to the cells, which were then incubated for a total of 10 minutes and then washed once with EnVision FLEX WASH BUFFER. EnVision FLEX Hematoxylin was added to the cells, which were incubated for 5 minutes and then washed a total of three times with EnVision FLEX WASH BUFFER and ion-exchanged water.

[2] = molecular target: T2, GPR20 fragment peptide LEVPLFHLFARLDEEL (human, SMILES …); assay: BLI (Octet RED384), peptide on streptavidin sensor, antibody as analyte, 1:1 model
T2 construct: Captured on streptavidin sensor chips
T2 peptide: Biotin-LEVPLFHLFARLDEEL-NH2
From the text: (§1) For the detailed analysis of the epitope, a peptide consisting of amino acid positions 29 to 48 of GPR20, and peptides in which a terminal amino acid residue was continuously truncated one by one from this peptide, were synthesized, and then N-terminally biotinylated and C-terminally amidated to produce a GPR20 fragment peptide library (Sigma-Aldrich Japan G.K.). […] PBS-T was used as a buffer solution, and the sensor chips used were streptavidin sensor chips (manufactured by Pall ForteBio Corp.). […] Subsequently, the sensor chip was dipped in the buffer solution, and a dissociation phase was monitored for 270 seconds. […] The data was analyzed using 1:1 binding models to calculate association rate constant ka, dissociation rate constant kd and dissociation constant KD (KD=kd/ka).

[3] = molecular target: T3, GPR20 fragment peptide GLEVPLFHLFARLDEELHGT (human, N-terminally biotinylated and C-terminally amidated); assay: as above
T3 construct: Captured on streptavidin sensor chips; also called peptide consisting of amino acid positions 29 to 48 of GPR20
T3 peptide: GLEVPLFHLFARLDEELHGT
From the text: as §1

[4] = molecular target: T4, GPR20 fragment peptide GLEVPLFHLFARLDEE (human, SMILES …); assay: as above
T4 construct: Captured on streptavidin sensor chips
T4 peptide: Biotin-GLEVPLFHLFARLDEE-NH2
From the text: as §1

[5] = molecular target: T5, GPR20 fragment peptide GLEVPLFHLFAR (human, SMILES …); assay: as above
T5 construct: Captured on streptavidin sensor chips
T5 peptide: Biotin-GLEVPLFHLFAR-NH2
From the text: as §1

[6] = molecular target: T6, GPR20 fragment peptide GLEVPLFHLFARLDEEL (human, SMILES …); assay: as above
T6 construct: Captured on streptavidin sensor chips
T6 peptide: Biotin-GLEVPLFHLFARLDEEL-NH2
From the text: as §1

[7] = molecular target: T7, GPR20 fragment peptide EVPLFHLFARLDEEL (human, SMILES …); assay: as above
T7 construct: Captured on streptavidin sensor chips
T7 peptide: Biotin-EVPLFHLFARLDEEL-NH2
From the text: as §1

[8] = molecular target: T8, GPR20 fragment peptide GLEVPLFHLFARLDE (human, SMILES …); assay: as above
T8 construct: Captured on streptavidin sensor chips
T8 peptide: Biotin-GLEVPLFHLFARLDE-NH2
From the text: as §1

[9] = molecular target: T9, GPR20 fragment peptide VPLFHLFARLDEEL (human, SMILES …); assay: as above
T9 construct: Captured on streptavidin sensor chips
T9 peptide: Biotin-VPLFHLFARLDEEL-NH2
From the text: as §1

[10] = molecular target: T10, GPR20 fragment peptide GLEVPLFHLFARL (human, SMILES …); assay: as above
T10 construct: Captured on streptavidin sensor chips
T10 peptide: Biotin-GLEVPLFHLFARL-NH2
From the text: as §1

[11] = molecular target: T11, GPR20 fragment peptide GLEVPLFHLFARLD (human, SMILES …); assay: as above
T11 construct: Captured on streptavidin sensor chips
T11 peptide: Biotin-GLEVPLFHLFARLD-NH2
From the text: as §1

[12] = molecular target: T1, human GPR20 protein; assay: flow cytometry, hybridoma culture supernatant on 293T cells transiently expressing human GPR20 versus empty-vector 293T cells, anti-rat IgG FITC
Procedure: The cells were left standing at 4° C. for 1 hour. […] The cells were left standing at 4° C. for 1 hour.

[13] = molecular target: T12, C-terminally biotinylated synthetic peptide 1 consisting of amino acids at positions 1 to 48 from the … (human, C-terminally biotinylated); assay: peptide-ELISA, biotinylated peptide on NeutrAvidin plate, antibody at 1 µg/mL, anti-rat IgG-peroxidase, chemiluminescence
T12 construct: Captured on NeutrAvidin plates
T12 peptide: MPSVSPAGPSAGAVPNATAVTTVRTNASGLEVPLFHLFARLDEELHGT
Procedure: NeutrAvidin (Pierce/Thermo Fisher Scientific Inc.) diluted to 1 μg/mL with PBS was added at 100 μL/well to 96-well Maxisorp plate (Nunc), and the plate was left standing overnight at 4° C. The solution was removed, and the plate was washed three times with 300 μL/well of PBS containing 0.05% Tween 20 (hereinafter, referred to as PBST). […] The plate was left standing at room temperature for 1 hour. The solution was removed from the plate, and each well was washed three times with PBST. Then, Blocker Casein in PBS (Thermo Fisher Scientific Inc.) was added at 100 μL/well, and the plate was left standing overnight at room temperature. The solution was removed, and each well was washed three times with PBST. […] The solution was removed, and each well was washed three times with PBST. Then, Anti-Rat IgG-Peroxidase antibody produced in rabbit (Jackson ImmunoResearch Laboratories, Inc.) 500-fold diluted with PBS was added at 100 μL/well, and the plate was left standing at room temperature for 1 hour. The solution was removed, and each well was washed three times with PBST. Then, SuperSignal ELISA Pico Chemiluminescent Substrate was added at 100 μl/well, and the plate was left standing at room temperature for 10 minutes, followed by the measurement of chemiluminescence using a plate reader (SpectraMax M3, Molecular Devices, LLC).

[14] = molecular target: T13, synthetic peptide 2 consisting of amino acid positions 30 to 48 of human GPR20 (human, also: biotinylated, position not given here); assay: as above
T13 construct: Captured on NeutrAvidin plates
T13 peptide: LEVPLFHLFARLDEELHGT

- binding result [1]: binds
B3: rabbit type anti-GPR20 antibody OcH2L1 (antibody, V domains shown)
VH: EVQLKESGGGLVKPGGSLKLSCKASGFTFNNYWMTWIRQAPGKGLEWIASITNIDGSSYYPDSVKGRFTISRDNAQSTLYLQLNSLTAADTATYFCTRGSFDYWGQGTLVTVSS
VL: DIVMTQTPSPVSAAVGGTVTINCKASQNVNKYLNWFQQKPGQPPKLLIYNTNNLQTGVPSRFSGSGSGTDYTLTISGVQCDDAATYYCFQHVSWLTFGGGTEVVVKG
notes: CDR-grafted rabbit type form of 04-093; also called OcH02/OcL01

- Kd [2]: < 0.001 nM
- Kd [3]: < 0.001 nM
- Kd [4]: < 0.001 nM
- Kd [5]: 13 nM
- Kd [6]: < 0.001 nM
- Kd [7]: 1.1 nM
- Kd [8]: < 0.001 nM
- Kd [9]: 5.7 nM
- Kd [10]: 1.1 nM
- Kd [11]: < 0.001 nM
- binding result [12]: binds
- binding result [13]: binds
- binding result [14]: binds
B4: rat anti-human GPR20 antibody 04-093 (antibody, rat IgG2b)
heavy: EVQLVESGGGLVQPGRSLKLSCVASGFTFNNYWMTWIRQAPGKGLEWVASITNIDGSSYYPDSVKGRFTISRDNVKSTLYLQMNSLRSEDTATYYCTRGSFDYWGQGVMVTVSSAQTTAPSVYPLAPGCGDTTSSTVTLGCLVKGYFPEPVTVTWNSGALSSDVHTFPAVLQSGLYTLTSSVTSSTWPSQTVTCNVAHPASSTKVDKKVERRNGGIGHKCPTCPTCHKCPVPELLGGPSVFIFPPKPKDILLISQNAKVTCVVVDVSEEEPDVQFSWFVNNVEVHTAQTQPREEQYNSTFRVVSALPIQHQDWMSGKEFKCKVNNKALPSPIEKTISKPKGLVRKPQVYVMGPPTEQLTEQTVSLTCLTSGFLPNDIGVEWTSNGHIEKNYKNTEPVMDSDGSFFMYSKLNVERSRWDSRAPFVCSVVHEGLHNHHVEKSISRPPGK
light: DIQMTQSPSVLSASVGDRVTLNCKASQNVNKYLNWFQQKLGEPPKLLIYNTNNLQTGIPSRFSGSGSGTDYTLTISSLQPEDVATYFCFQHVSWLTFGSGTKLEIKRADAAPTVSIFPPSTEQLATGGASVVCLMNNFYPRDISVKWKIDGTERRDGVLDSVTDQDSKDSTYSMSSTLSLTKADYESHNLYTCEVVHKTSSSPVVKSFNRNEC
notes: Rat IgG2b, kappa, from a hybridoma; the full-length chains were made by linking them to known rat constant regions (IMGT IGHG2B*01, IGKC*01); also called 04-093 antibody; rat anti-GPR20 antibody 04-093

Second part, the binder before the results:

B1: rabbit chimeric anti-GPR20 antibody OcChimera (antibody)
heavy: EVQLVESGGGLVQPGRSLKLSCVASGFTFNNYWMTWIRQAPGKGLEWVASITNIDGSSYYPDSVKGRFTISRDNVKSTLYLQMNSLRSEDTATYYCTRGSFDYWGQGVMVTVSSGQPKAPSVFPLAPCCGDTPSSTVTLGCLVKGYLPEPVTVTWNSGTLTNGVRTFPSVRQSSGLYSLSSVVSVTSSSQPVTCNVAHPATNTKVDKTVAPSTCSKPTCPPPELLGGPSVFIFPPKPKDTLMISRTPEVTCVVVDVSQDDPEVQFTWYINNEQVRTARPPLREQQFNSTIRVVSTLPITHQDWLRGKEFKCKVHNKALPAPIEKTISKARGQPLEPKVYTMGPPREELSSRSVSLTCMINGFYPSDISVEWEKNGKAEDNYKTTPAVLDSDGSYFLYNKLSVPTSEWQRGDVFTCSVMHEALHNHYTQKSISRSPGK
light: DIQMTQSPSVLSASVGDRVTLNCKASQNVNKYLNWFQQKLGEPPKLLIYNTNNLQTGIPSRFSGSGSGTDYTLTISSLQPEDVATYFCFQHVSWLTFGSGTKLEIKRDPVAPSVLLFPPSKEELTTGTATIVCVANKFYPSDITVTWKVDGTTQQSGIENSKTPQSPEDNTYSLSSTLSLTSAQYNSHSVYTCEVVQGSASPIVQSFNRGDC
notes: 04-093 variable regions on rabbit IGHG*02 and IGKC2*01 constant regions; also called rabbit chimeric antibody; OcHch/OcLch
- binding result [1]: binds

B2: rabbit type anti-GPR20 antibody OcH1L1 (antibody, V domains shown)
VH: EVQLKESGGGLVKPGGSLKLCCKASGFTFNNYWMTWIRQAPGKGLEWIASITNIDGSSYYASWVNGRFTLSRDNAQSTVCLQLNSLTAADTATYFCTRGSFDYWGQGTLVTVSS
VL: DIVMTQTPSPVSAAVGGTVTINCKASQNVNKYLNWFQQKPGQPPKLLIYNTNNLQTGVPSRFSGSGSGTDYTLTISGVQCDDAATYYCFQHVSWLTFGGGTEVVVKG
notes: CDR-grafted rabbit type form of 04-093; also called OcH01/OcL01
- binding result [1]: binds
